Where “and” joins values, the source holds several entries; their conditions need not be identical. Equal values may be shown once.
Experiments:
Type in all cases: biochemical
Aβ1–42 = molecular target: T1, Aβ1–42 (Homo sapiens, UniProt P05067); test: Endpoint degradation assay with ELISA read-out; settings: 1 hour at room temperature; Aβ42 ELISA
T1 construct: Aβ 1-42^a
Experimental: Supplementary file pone.0104001.s001.tif: Figure S1 Degradation of Aβ1–40 and Aβ1–42 by NEP wild-type and NEPv. Measurement of the degredation of Aβ1–40 (A) and Aβ1–42 (B) was performed by incubating peptide and either wild-type NEP (▪) or NEPv (Δ) for 1 hour at room temperature. The reaction was stopped by the addition of 1.10-phenanthroline to a final concentration of 10 µM. 50 µl (Aβ40 analysis) or 100 µl (Aβ42 analysis) of the reaction mix was transferred to an ELISA plate. Aβ40 and Aβ42 concentrations after degradation were determined using Invitrogen human Aβ40 ELISA kit (Invitrogen, California, US), and Innotest β-amyloid RUO (1–42) ELISA (Innogenetics, Gent, Belgium). […] (TIF) Click here for additional data file.

[1] = tested on: panel of off-target peptides; test: Steady-state kinetics across the panel of off-target peptides
Experimental: For detailed kinetic characterisation of peptide cleavage by NEP, a similar assay to that above was used with modifications based on a published method. Peptides were synthesised by Bachem using 9-fluorenylmethyloxycarbonyl solid-phase peptide synthesis and were labelled with a N-terminal 5(6)FAM via a ε-aminocaproic acid linker and a C-terminal biotin via a lysine linker (Table S1). Purified peptides were supplied as trifluoroacetate salts with a purity ≥95%. The assay was performed in a 96-well microtitre plate and contained 50 mM HEPES (pH 7.4), 100 mM NaCl, 0.05% (w/v) BSA (Buffer A), 1–200 µM peptide substrate and 1–500 nM NEP protein. […] The fluorescence polarisation of the resulting solution was measured on a Victor plate reader and the amount of substrate cleaved was determined with reference to substrate-only controls with and without avidin. […]
Kinetic parameters for cleavage of endothelin-1 by NEP were determined using a stopped assay in which the amount of substrate cleaved was measured using reversed-phase HPLC (RP-HPLC). […] RP-HPLC spectra were recorded using an Agilent 1260 Infinity system. […] Signal intensity for intact endothelin-1 was monitored at 210 nm and relative peak area was determined by manual integration of the baseline. […]
Kinetic parameters for cleavage of a panel of peptides by wild-type NEP and NEPv were determined (Figure 3 and Table 2). […]

Aβ1–40 = test: Steady-state kinetics of peptide cleavage, fluorescence polarisation; settings: for increase in kcat/KM (catalytic efficiency) on Aβ1–40 over wild-type NEP: relative to wild-type NEP
Experimental: (§1) For detailed kinetic characterisation of peptide cleavage by NEP, a similar assay to that above was used with modifications based on a published method. Peptides were synthesised by Bachem using 9-fluorenylmethyloxycarbonyl solid-phase peptide synthesis and were labelled with a N-terminal 5(6)FAM via a ε-aminocaproic acid linker and a C-terminal biotin via a lysine linker (Table S1). Purified peptides were supplied as trifluoroacetate salts with a purity ≥95%. The assay was performed in a 96-well microtitre plate and contained 50 mM HEPES (pH 7.4), 100 mM NaCl, 0.05% (w/v) BSA (Buffer A), 1–200 µM peptide substrate and 1–500 nM NEP protein. Reactions were incubated at 37°C before being stopped at various time points between 2 and 360 min by transferring 5 µL aliquots to 245 µL Buffer A containing 2 mM 1,10-phenanethroline (Sigma) and 2 µM avidin (Invitrogen). For peptide substrates containing disulphide bonds, 1 mM tris(2-carboxyethyl)phosphine (Thermo Scientific) was added to the stop solution. The fluorescence polarisation of the resulting solution was measured on a Victor plate reader and the amount of substrate cleaved was determined with reference to substrate-only controls with and without avidin. Initial rates were obtained by linear regression of the linear regions of time courses. Enzyme velocity was plotted as a function of substrate concentration and the Michaelis-Menten equation was used to fit the data, giving the parameters kcat and KM.

α-endorphin = test: as above; settings: substrate α-endorphin
Experimental: as §1

Nociceptin = test: as above; settings: substrate Nociceptin
Experimental: as §1

γ-endorphin = test: as above; settings: substrate γ-endorphin
Experimental: as §1

Somatostatin 28 = test: as above; settings: substrate Somatostatin 28
Experimental: as §1

Glucagon = test: as above; settings: substrate Glucagon
Experimental: as §1

GRP = test: as above; settings: substrate GRP
Experimental: as §1

Neurokinin B = test: as above; settings: substrate Neurokinin B
Experimental: as §1

Somatostatin 14 = test: as above; settings: substrate Somatostatin 14
Experimental: as §1

Angiotensin = test: as above
Experimental: as §1

GLP-1 = test: as above; settings: substrate GLP-1
Experimental: as §1

ANP = test: as above; settings: substrate ANP
Experimental: as §1

[2] = substrate Aβ 1–40, 37°C, pH 7.4
[3] = ratio of wild-type NEP kcat/KM to that of the mutant
[4] = substrate Angiotensin, 37°C, pH 7.4

T1 sequence (P05067 672-713): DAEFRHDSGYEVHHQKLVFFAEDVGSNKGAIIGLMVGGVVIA

B1: NEPv: lead variant at round 2, human NEP ectodomain with the two mutations G399V and G714K (protein, UniProt P08473 52-750, looked up, variant G399V G714K)
extracellular domain: YDDGICKSSDCIKSAARLIQNMDATTEPCTDFFKYACGGWLKRNVIPETSSRYGNFDILRDELEVVLKDVLQEPKTEDIVAVQKAKALYRSCINESAIDSRGGEPLLKLLPDIYGWPVATENWEQKYGASWTAEKAIAQLNSKYGKKVLINLFVGTDDKNSVNHVIHIDQPRLGLPSRDYYECTGIYKEACTAYVDFMISVARLIRQEERLPIDENQLALEMNKVMELEKEIANATAKPEDRNDPMLLYNKMTLAQIQNNFSLEINGKPFSWLNFTNEIMSTVNISITNEEDVVVYAPEYLTKLKPILTKYSARDLQNLMSWRFIMDLVSSLSRTYKESRNAFRKALYVTTSETATWRRCANYVNGNMENAVGRLYVEAAFAGESKHVVEDLIAQIREVFIQTLDDLTWMDAETKKRAEEKALAIKERIGYPDDIVSNDNKLNNEYLELNYKEDEYFENIIQNLKFSQSKQLKKLREKVDKDEWISGAAVVNAFYSSGRNQIVFPAGILQPPFFSAQQSNSLNYGGIGMVIGHEITHGFDDNGRNFNKDGDLVDWWTQQSASNFKEQSQCMVYQYGNFSWDLAGGQHLNGINTLGENIADNGGLGQAYRAYQNYIKKNGEEKLLPGLDLNHKQLFFLNFAQVWCGTYRPEYAVNSIKTDVHSPKNFRIIGTLQNSAEFSEAFHCRKNSYMNPEKKCRVW
modifications: extracellular domain
- EC50 (Aβ1–42): 19.5 nM
- reduction in activity on other peptides ([1]; other (off-target) peptides, relative to wild-type): ≤ 3,200 fold
- average specificity switch (ratio of the fold change in kcat/KM on Aβ1–40 to that on other peptides) ([1]; panel of 16 peptides): 5,300 fold
- increase in kcat relative to wild-type NEP (Aβ1–40; substrate Aβ1–40): ~2 fold
- Km (Aβ1–40; [2]): 14 ± 1 µM
- kcat (Aβ1–40; [2]): 2.1 ± 0.1 s⁻¹
- Fold change in kcat/KM (Aβ1–40; substrate Aβ 1–40, ratio of wild-type NEP kcat/KM to that of the mutant): 0.055
- increase in kcat/KM (catalytic efficiency) on Aβ1–40 over wild-type NEP (Aβ1–40; substrate Aβ1–40): 18.5 fold and 20 fold
- increase in kcat/KM (catalytic efficiency) on Aβ1–40 over wild-type NEP (Aβ1–40; substrate Aβ1–40, listed as Neprilysin variant G399V/G714K): approximately 20 fold
- Km (α-endorphin; 37°C, pH 7.4): 6.5 ± 1 µM
- kcat (α-endorphin; 37°C, pH 7.4): 0.089 ± 0.003 s⁻¹
- Fold change in kcat/KM (α-endorphin; [3]): 26
- Km (Nociceptin; 37°C, pH 7.4): 63 ± 7 µM
- kcat (Nociceptin; 37°C, pH 7.4): 14 ± 0.9 s⁻¹
- Fold change in kcat/KM (Nociceptin; [3]): 2.6
- Km (γ-endorphin; 37°C, pH 7.4): 4.4 ± 0.6 µM
- kcat (γ-endorphin; 37°C, pH 7.4): 0.16 ± 0.006 s⁻¹
- Fold change in kcat/KM (γ-endorphin; [3]): 10
- Km (Somatostatin 28; 37°C, pH 7.4): 47 ± 20 µM
- kcat (Somatostatin 28; 37°C, pH 7.4): 0.086 ± 0.02 s⁻¹
- Fold change in kcat/KM (Somatostatin 28; [3]): 87
- Km (Glucagon; 37°C, pH 7.4): 30 ± 6 µM
- kcat (Glucagon; 37°C, pH 7.4): 1.2 ± 0.1 s⁻¹
- Fold change in kcat/KM (Glucagon; [3]): 4.2
- reduction in kcat relative to wild-type NEP (GRP): 67 fold
- Km (GRP; 37°C, pH 7.4): 120 ± 20 µM
- kcat (GRP; 37°C, pH 7.4): 0.39 ± 0.05 s⁻¹
- Fold change in kcat/KM (GRP; [3]): 52
- Km (Neurokinin B; 37°C, pH 7.4): 22 ± 3 µM
- kcat (Neurokinin B; 37°C, pH 7.4): 0.42 ± 0.03 s⁻¹
- Fold change in kcat/KM (Neurokinin B; [3]): 48
- Km (Somatostatin 14; 37°C, pH 7.4): 32 ± 3 µM
- kcat (Somatostatin 14; 37°C, pH 7.4): 9.1 ± 0.4 s⁻¹
- Fold change in kcat/KM (Somatostatin 14; [3]): 15
- Km (Angiotensin; [4]): 13 ± 2 µM
- kcat (Angiotensin; [4]): 0.14 ± 0.007 s⁻¹
- Fold change in kcat/KM (Angiotensin; substrate Angiotensin, ratio of wild-type NEP kcat/KM to that of the mutant): 87
- reduction in kcat relative to wild-type NEP (Angiotensin; substrate angiotensin): 60 fold
- Km (GLP-1; 37°C, pH 7.4): 23 ± 4 µM
- kcat (GLP-1; 37°C, pH 7.4): 0.89 ± 0.07 s⁻¹
- Fold change in kcat/KM (GLP-1; [3]): 3.6
- Km (ANP; 37°C, pH 7.4): 33 ± 6 µM
- kcat (ANP; 37°C, pH 7.4): 0.56 ± 0.05 s⁻¹
- Fold change in kcat/KM (ANP; [3]): 53
